According to US20210246451, “APTAMER FOR ADAMTS5 AND USE FOR APTAMER FOR ADAMTS5” (RIBOMIC INC., published 2021):

Molecular target: T1, ADAMTS5 (UniProt Q9UNA0 Q9UNA0:262-622)
T1 sequence: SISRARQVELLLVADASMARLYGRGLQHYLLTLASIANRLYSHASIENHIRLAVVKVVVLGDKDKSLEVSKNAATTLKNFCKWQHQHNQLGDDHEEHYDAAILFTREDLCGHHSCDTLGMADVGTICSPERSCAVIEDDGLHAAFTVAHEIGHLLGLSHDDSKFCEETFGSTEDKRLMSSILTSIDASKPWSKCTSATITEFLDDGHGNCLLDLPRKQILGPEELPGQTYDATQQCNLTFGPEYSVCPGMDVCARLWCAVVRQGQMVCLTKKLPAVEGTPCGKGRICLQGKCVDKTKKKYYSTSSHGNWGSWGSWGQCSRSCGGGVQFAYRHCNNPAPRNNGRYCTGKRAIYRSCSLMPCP
Experiment: inhibition; method 2 ELISA; method 1 92.9%
Settings: tags: R&D Systems
Experimental: The heat-treated reaction solution was electrophoresed by 7.5% SDS-PAGE and stained with SYPRO Orange (manufactured by Sigma-Aldrich). The staining was performed according to the manual of Sigma-Aldrich and detected using STORM840 manufactured by GE Healthcare. […] The amount of uncleaved substrate in each reaction solution was quantified from the band intensity and the standard curve. The substrate cleavage efficiency of ADAMTS5 under these reaction conditions was 80-100%. The inhibition rate of the test substance was calculated using the following equation.
On the other hand, the aptamers having the sequences shown by the sequences of SEQ ID NOs: 11(34)-11(35) and SEQ ID NO: 15 were evaluated by the following method (evaluation method 2). […] The cleaved substrate was quantified by a sandwich ELISA method using two kinds of anti-aggrecan antibodies. […] Using this, the amount of cleaved substrate can be quantified. […] The inhibition rate of the test substance was calculated using the following equation.
The aptamers having the sequences shown in SEQ ID NOs: 28(l)-28(18) (SEQ ID NO: 28 lineage) and SEQ ID NOs: 29(1)-29(3) (SEQ ID NO: 29 lineage) were all produced by chemical synthesis. Whether these aptamers inhibit the enzyme activity of ADAMTS5 was evaluated by a method similar to that in Example 1 and Example 5.

In the case of CGUAGGGGCCUCCACAGCAUUCGCUUGGACACAAACCACG (ssRNA, as SEQ 29 plus 2'-OMe at A31; 3' idT) [29(1)], the IC50 is reported as 0.17 nM.
